Experimental data: patent publication US6379665B1, “Phospholipase D polypeptide and DNA sequences” (Onyx Pharmaceuticals, Inc., priority 1996, dated 2002)

Test system: HL-60 cells
Assay: RT-PCR quantification of hPLD1a and hPLD1b during dbcAMP-induced HL-60 cell differentiation
Assay type: cell-based, human
Conditions: 0.5 mM dbcAMP
Description: To analyze changes in the levels of hPLD1 a and hPLD1b during HL-60 cell differentiation induced by dcbAMP, HL-60 cells maintained in RPMI-1640 medium supplemented with 10% fetal bovine serum, 100 units/ml penicillin and 100 µg/ml streptomycin in a humidified atmosphere containing 5% CO2, at 37 C. were grown in RPMI-1640 medium without fetal bovine serum for 24 hours. Differentiation was initiated by the addition of 0.5 mM dbcAMP. Levels of PLD1a and PLD1b were quantified by RT-PCR. Total RNA was isolated from the HL-60 cells at the exponential growth stage by the acid guanidine thiocyanate method following the protocol of Chomczynski, Anal. Biochem. 162: 156-62(1992). Two g of RNA was reverse transcribed by using random hexamer mixed primers. The number of amplification cycles were determined to individual primer sets in order to maintain exponential rate of product amplification. Amplified DNA fragments were subjected to electrophoresis on 1.5% agarose gel and visualized by ethidium bromide staining. The intensity of bands was quantified by a densitometer (Atto Densitograph, Tokyo, Japan). Primer A (Forward): nucleotides 1475 through 1491; primer B (reverse) nucleotides 2133 through 2113 of SEQ ID NO: 1. Amplification conditions used were 94 C. for 30 seconds, 60 C. for 1 minute, and 72 C. for 1 minute; 25-27 cycles.

B1: hPLD1b: human phospholipase D1b splice variant, approximately 1036 amino acid protein, SEQ ID NO:5 (protein, listed as Homo sapiens)
chain: MSLKNEPRVNTSALQKIAADMSNIIENLDTRELHFEGEEVDYDVSPSDPKIQEVYIPFSAIYNTQGFKEPNIQTYLSGCPIKAQVLEVERFTSTTRVPSINLYTIELTHGEFKWQVKRKFKHFQEFHRELLKYKAFIRIPIPTRRHTFRRQNVREEPREMPSLPRSSENMIREEQFLGRRKQLEDYLTKILKMPMYRNYHATTEFLDISQLSFIHDLGPKGIEGMIMKRSGGHRIPGLNCCGQGRACYRWSKRWLIVKDSFLLYMKPDSGAIAFVLLVDKEFKIKVGKKETETKYGIRIDNLSRTLILKCNSYRHARWWGGAIEEFIQKHGTNFLKDHRFGSYAAIQENALAKWYVNAKGYFEDVANAMEEANEEIFITDWWLSPEIFLKRPVVEGNRWRLDCILKRKAQQGVRIFIMLYKEVELALGINSEYTKRTLMRLHPNIKVMRHPDHVSSTVYLWAHHEKLVIIDQSVAFVGGIDLAYGRWDDNEHRLTDVGSVKRVTSGPSLGSLPPAAMESMESLRLKDKNEPVQNLPIQKSIDDVDSKLKGIGKPRKFSKFSLYKQLHRHHLHDADSISSIDSTSNTGSIRSLQTGVGELHGETRFWHGKDYCNFVFKDWVQLDKPFADFIDRYSTPRMPWHDIASAVHGKAARDVARHFIQRWNFTKIMKSKYRSLSYPFLLPKSQTTAHELRYQVPGSVHANVQLLRSAADWSAGIKYHEESIHAAYVHVIENSRHYIYIENQFFISCADDKVVFNKIGDAIAQRILKAHRENQKYRVYVVIPLLPGFEGDISTGGGNALQAIMHFNYRTMCRGENSILGQLKAELGNQWINYISFCGLRTHAELEGNLVTELIYVHSKLLIADDNTVIIGSANINDRSMLGKRDSEMAVIVQDTETVPSVMDGKEYQAGRFARGLRLQCFRVVLGYLDDPSEDIQDPVSDKFFKEVWVSTAARNATIYDKVFRCLPNDEVHNLIQLRDFINKPVLAKEDPIRAEEELKKIRGFLVQFPFYFLSEESLLPSVGTKEAIVPMEVWT
- increase in level (printed as activity) on day 1 (day 1, RT-PCR): less than 2 fold
- increase in level (printed as activity) on day 2 (day 2, RT-PCR): approximately 3 fold
- increase in level (printed as activity) on day 3 (day 3, RT-PCR): approximately 3.5 fold

B2: PLD1: purified recombinant mammalian PLD1 (SEQ ID NOS:2 or 5), a/b form not specified (protein, UniProt Q13393 1-1074, looked up)
Phospholipase D1: MSLKNEPRVNTSALQKIAADMSNIIENLDTRELHFEGEEVDYDVSPSDPKIQEVYIPFSAIYNTQGFKEPNIQTYLSGCPIKAQVLEVERFTSTTRVPSINLYTIELTHGEFKWQVKRKFKHFQEFHRELLKYKAFIRIPIPTRRHTFRRQNVREEPREMPSLPRSSENMIREEQFLGRRKQLEDYLTKILKMPMYRNYHATTEFLDISQLSFIHDLGPKGIEGMIMKRSGGHRIPGLNCCGQGRACYRWSKRWLIVKDSFLLYMKPDSGAIAFVLLVDKEFKIKVGKKETETKYGIRIDNLSRTLILKCNSYRHARWWGGAIEEFIQKHGTNFLKDHRFGSYAAIQENALAKWYVNAKGYFEDVANAMEEANEEIFITDWWLSPEIFLKRPVVEGNRWRLDCILKRKAQQGVRIFIMLYKEVELALGINSEYTKRTLMRLHPNIKVMRHPDHVSSTVYLWAHHEKLVIIDQSVAFVGGIDLAYGRWDDNEHRLTDVGSVKRVTSGPSLGSLPPAAMESMESLRLKDKNEPVQNLPIQKSIDDVDSKLKGIGKPRKFSKFSLYKQLHRHHLHDADSISSIDSTSSYFNHYRSHHNLIHGLKPHFKLFHPSSESEQGLTRPHADTGSIRSLQTGVGELHGETRFWHGKDYCNFVFKDWVQLDKPFADFIDRYSTPRMPWHDIASAVHGKAARDVARHFIQRWNFTKIMKSKYRSLSYPFLLPKSQTTAHELRYQVPGSVHANVQLLRSAADWSAGIKYHEESIHAAYVHVIENSRHYIYIENQFFISCADDKVVFNKIGDAIAQRILKAHRENQKYRVYVVIPLLPGFEGDISTGGGNALQAIMHFNYRTMCRGENSILGQLKAELGNQWINYISFCGLRTHAELEGNLVTELIYVHSKLLIADDNTVIIGSANINDRSMLGKRDSEMAVIVQDTETVPSVMDGKEYQAGRFARGLRLQCFRVVLGYLDDPSEDIQDPVSDKFFKEVWVSTAARNATIYDKVFRCLPNDEVHNLIQLRDFINKPVLAKEDPIRAEEELKKIRGFLVQFPFYFLSEESLLPSVGTKEAIVPMEVWT
- increase over the 3 day differentiation period (3 days, RT-PCR): 3-4 fold
